“And” between values parts separate entries of the source, which are not always exact repeats. Equal values may be shown once.
What was measured:
Assay in all cases: peptide-array ELISA [Con't]
[1] = target: CAPEPGST2…2…
[2] = target: WNWVPE2…
[3] = target: SDVV2…
[4] = target: 2…
[5] = target: …2TSCAPLRK2…
2…2R = target: 2…2R
REQNRI2…2R = target: REQNRI2…2R
TREQNRI2…2R = target: TREQNRI2…2R
[6] = target: TETSDVV2…
[7] = target: V2…
[8] = target: C2…2…
…2TREQNRIC = target: …2TREQNRIC
[9] = target: CG2RL2APLRK2RPGFCQA2TREQNRI2T2RPC
[10] = target: SKQEGCRL2APGGSGGL2…
[11] = target: CQA2TREQNRI2T2RPCAPLRK2…
[12] = target: ETSDVV2…
VPE2LS2…2RPGW = target: VPE2LS2…2RPGW
SCGSR2…2 = target: SCGSR2…2
S2…2TREQNRIC = target: S2…2TREQNRIC
[13] = target: VV2…
CAPLRK2…2TREQNRI2T2RPC = target: CAPLRK2…2TREQNRI2T2RPC
[14] = target: CSR2…2TRCAPLRK2…
CDQVETQA2…2RLC = target: CDQVETQA2…2RLC
REQNRI2…2RL = target: REQNRI2…2RL
[15] = target: STDI2…
Sequence of STDI2… (peptide, as listed by the source): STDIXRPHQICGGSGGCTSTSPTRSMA

[16] = target: …2…2…
[17] = target: CLSKQEG2RL2APLRKCQA2TREQNRI2T2RPC
CLSKQEG2RL2…2TREQNRIC = target: CLSKQEG2RL2…2TREQNRIC
PE2LS2…2R = target: PE2LS2…2R
2LS2…2…2 = target: 2LS2…2…2
…2R = target: …2R
Sequence of …2R (peptide, as listed by the source): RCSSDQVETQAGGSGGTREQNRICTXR

[18] = target: VPE2LSCGSR2…
QEG2…2APGTFSN = target: QEG2…2APGTFSN
[19] = target: CAV2…2…
[20] = target: CQA2TREQNRI2T2RPCQA2TREQNRI2T2RPC
[21] = target: …22SK2CAPLRK2…
…2LS2GCLSKQEG2RL2APLRKC = target: …2LS2GCLSKQEG2RL2APLRKC
CNASMDAV2…2TSTSPTRC = target: CNASMDAV2…2TSTSPTRC
[22] = target: DI2…
Sequence of DI2… (peptide, as listed by the source): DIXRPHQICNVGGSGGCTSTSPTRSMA

2TREQNRI2…2R = target: 2TREQNRI2…2R
CQA2TREQNRI2T2…2RLC = target: CQA2TREQNRI2T2…2RLC
[23] = target: CTSSTDI2RPHQI2NVCAPLRK2…
2LS2…2RPG = target: 2LS2…2RPG
CNWVPE2LS2GSR2…2TSTSPTRC = target: CNWVPE2LS2GSR2…2TSTSPTRC
[24] = target: 2LSCGSR2…
[25] = target: CTSSTDI2RPHQI2NVCQA2TREQNRI2T2RPC
[26] = target: …2RLCAPLRK2…
CNASMDAV2…2TREQNRI2T2RPC = target: CNASMDAV2…2TREQNRI2T2RPC
[27] = target: …2…
NWVPE2…2T2 = target: NWVPE2…2T2
[28] = target: CGWY2ALSKQEG2RL2CQA2TREQNRI2T2RPC

Sequence of WNWVPE2… (peptide, as listed by the source): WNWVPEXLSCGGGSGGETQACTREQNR

agonistic TNFR2 antibody MR2-1
Raw luminescence data [1]: 196 | Raw luminescence data [2]: 220 | Raw luminescence data [3]: 203 and 196 | Raw luminescence data [4]: 208 | Raw luminescence data [5]: 197 | Raw luminescence data (2…2R): 223 | Raw luminescence data (REQNRI2…2R): 210 | Raw luminescence data (TREQNRI2…2R): 205 | Raw luminescence data [6]: 208 | Raw luminescence data [7]: 222 and 197 | Raw luminescence data [8]: 194 | Raw luminescence data (…2TREQNRIC): 207 and 192 | Raw luminescence data [9]: 215 | Raw luminescence data [10]: 224 | Raw luminescence data [11]: 204 | Raw luminescence data [12]: 197 | Raw luminescence data (VPE2LS2…2RPGW): 222 | Raw luminescence data (SCGSR2…2): 192 | Raw luminescence data (S2…2TREQNRIC): 191 | Raw luminescence data [13]: 209 | Raw luminescence data (CAPLRK2…2TREQNRI2T2RPC): 220 | Raw luminescence data [14]: 210 | Raw luminescence data (CDQVETQA2…2RLC): 157 | Raw luminescence data (REQNRI2…2RL): 161 | Raw luminescence data [15]: 159 | Raw luminescence data [16]: 160 | Raw luminescence data [17]: 158 | Raw luminescence data (CLSKQEG2RL2…2TREQNRIC): 160 | Raw luminescence data (PE2LS2…2R): 162 | Raw luminescence data (2LS2…2…2): 167 | Raw luminescence data (…2R): 160 | Raw luminescence data [18]: 165 | Raw luminescence data (QEG2…2APGTFSN): 167 | Raw luminescence data [19]: 171 | Raw luminescence data [20]: 166 | Raw luminescence data [21]: 168 | Raw luminescence data (…2LS2GCLSKQEG2RL2APLRKC): 164 | Raw luminescence data (CNASMDAV2…2TSTSPTRC): 164 | Raw luminescence data [22]: 166 | Raw luminescence data (2TREQNRI2…2R): 164 | Raw luminescence data (CQA2TREQNRI2T2…2RLC): 171 | Raw luminescence data [23]: 158 | Raw luminescence data (2LS2…2RPG): 162 | Raw luminescence data (CNWVPE2LS2GSR2…2TSTSPTRC): 161 | Raw luminescence data [24]: 157 | Raw luminescence data [25]: 166 | Raw luminescence data [26]: 165 | Raw luminescence data (CNASMDAV2…2TREQNRI2T2RPC): 157 | Raw luminescence data [27]: 166 and 165 | Raw luminescence data (NWVPE2…2T2): 168 | Raw luminescence data [28]: 158
